Substitutions are numbered along the chain they refer to.
B1: B27 (Fab, V domains shown)
VH: EVQLVESGGGLVQPGGSLRLSCAASGFSISYSSIHWVRQAPGKGLEWVASIYPYYGYTSYADSVKGRFTISADTSKNTAYLQMNSLRAEDTAVYYCARFFFFSSSFFGFDYWGQGTLVTVSS
VL: DIQMTQSPSSLSASVGDRVTITCRASQDVNTAVAWYQQKPGKAPKLLIYSASSLYSGVPSRFSGSRSGTDFTLTISSLQPEDFATYYCQQYSYYPYTFGQGTKVEIK
notes: also called SXH3-B27 Fab-phage
B2: Clone YSGR-A-42, purified soluble Fab (Fab, V domains shown)
VH: EVQLVESGGGLVQPGGSLRLSCAASGFYISSSSIHWVRQAPGKGLEWVAYIYPSSGYTSYADSVKGRFTISADTSKNTAYLQMNSLRAEDTAVYYCARGYYYSYYSGYALDYWGQGTLVTVSS
VL: B1 VL with Y91S, S92Y, Y93S, Y94S, Y96S
notes: also called clone 42 (YSGR-A); clone 42
B3: Clone G37 (SX-surface), purified Fab (Fab, V domains shown)
VH: EVQLVESGGGLVQPGGSLRLSCAASGFSIWWSWIHWVRQAPGKGLEWVASISPSSGWTSYADSVKGRFTISADTSKNTAYLQMNSLRAEDTAVYYCARWWSSAMDYWGQGTLVTVSS
VL: B1 VL with Y91W, S92W, Y93W, Y94W, Y96S
B4: Clone G54 (SX-surface), purified soluble Fab (Fab, V domains shown)
VH: B3 VH with W30S, W31S, W33Y, S52Y, S54Y, W57Y, W99Y, W100Y, S102Y, M104L
VL: B1 VL with Y91S, S92Y, Y96S
notes: Tyrosine-containing clone
B5: Clone B11 (SXH3), purified soluble Fab (Fab, V domains shown)
VH: B3 VH with W30Y, W31S, W33Y, S52Y, S54Y, W57Y, M104F
VL: B1 VL with Y91S, S92Y, Y96S
notes: Tryptophan-containing clone
B6: G35 (Fab, V domains shown)
VH: B3 VH with W30S, S52W, M104L
VL: B1 VL with Y91W, S92W, Y93W, Y94W, Y96S
B7: G40 (Fab, V domains shown)
VH: B3 VH with W100S, S102W, A103G, M104L
VL: B1 VL with Y91W, Y93W, Y94W, Y96S
B8: G36 (Fab, V domains shown)
VH: B3 VH with W100S, M104F
VL: B1 VL with Y91W, S92W, Y93W, Y94W, Y96S

Target: T1, human HER-2 extracellular domain (HER-2 ECD) (human, UniProt P04626 23-646)
T1 construct: range 23-646; also called erbB2; HER2 protein
Assay: Fab-phage binding affinity

| Binder | IC50 |
| --- | --- |
| B1 | 71700 pM |
| B2 | 320 pM |
| B3 | 310 pM |
| B4 | 2440 pM |
| B5 | 850 pM |

Target: neutravidin (UniProt P02701)
Assay: specificity phage ELISA

| Binder | ELISA signal at 450 nm |
| --- | --- |
| B6 | 0.29 |
| B7 | 0.45 |
| B8 | 0.26 |
| B3 | 0.32 |

Target: human VEGF (human) (UniProt P15692)
Assay: specificity phage ELISA

| Binder | ELISA signal at 450 nm |
| --- | --- |
| B6 | 0.31 |
| B7 | 0.31 |
| B8 | 0.38 |
| B3 | 0.23 |

Target: human insulin (human) (UniProt P01308)
Assay: specificity phage ELISA

| Binder | ELISA signal at 450 nm |
| --- | --- |
| B6 | 0.37 |
| B7 | 2.64 |
| B8 | 0.29 |
| B3 | 0.45 |

Target: human IGF-1 (human) (UniProt P05019)
Assay: specificity phage ELISA

| Binder | ELISA signal at 450 nm |
| --- | --- |
| B6 | 0.25 |
| B7 | 0.85 |
| B8 | 0.3 |
| B3 | 0.32 |

Target: human DR5 (construct not stated) (human) (UniProt O14763)
Assay: specificity phage ELISA

| Binder | ELISA signal at 450 nm |
| --- | --- |
| B3 | 0.21 |

Target: T1, human HER-2 extracellular domain (HER-2 …)
Assay: competitive Fab-phage ELISA

| Binder | IC50 |
| --- | --- |
| B2 | 320 pM |

Target: T1, human HER-2 extracellular domain (HER-2 …)
Assay: competitive Fab-phage ELISA
Remark: another data set of the same source

| Binder | IC50 |
| --- | --- |
| B1 | 71700 pM |
| B5 | 850 pM |

Target: T1, human HER-2 extracellular domain (HER-2 …)
Assay: competitive Fab-phage ELISA
Remark: another data set of the same source

| Binder | IC50 |
| --- | --- |
| B6 | 650 pM |
| B7 | 1800 pM |
| B8 | 1200 pM |
| B3 | 310 pM |
| B4 | 2440 pM |

Target: T1, human HER-2 extracellular domain (HER-2 …)
Assay: SPR (BIAcore A100), HER2 amine-coupled to the chip, soluble Fab injected, 25 C

| Binder | Kd | koff | kon |
| --- | --- | --- | --- |
| B2 | 570 pM | 0.0015 s⁻¹ | 2.7e+06 M⁻¹ s⁻¹ |
| B4 | 11000 pM | 0.0022 s⁻¹ | 200000 M⁻¹ s⁻¹ |
| B5 | 890 pM | 0.0017 s⁻¹ | 1.9e+06 M⁻¹ s⁻¹ |
